Legend:
[1] = biological target: lactoferrin (Homo sapiens) (UniProt P02788); conditions: cited from earlier work
[2] = biological target: recombinant WU2 (r)PspA possessing only αHD and PRD (Streptococcus pneumoniae serotype 3 strain WU2); test: SPR; Biacore T200; kinetic study, LF at several concentrations in PBS-P+ injected over rPspA amine-coupled to a CM5 chip; 25°C; fitted to a two-state binding curve

Substance	Kd [1] [nM]	Kd [2] [nM]
mGAPDH (from UniProt P04406)	43.8	
recombinant lactoferrin (from UniProt P02788 20-710) (natural protein)		3.89

— article PMC10746202
